Measurements from paper PMC11957791.

Molecular target: SBW25 RimK (P. fluorescens SBW25) (UniProt C3KE61)
UniProt C3KE61, sequence (C3KE61 whole entry): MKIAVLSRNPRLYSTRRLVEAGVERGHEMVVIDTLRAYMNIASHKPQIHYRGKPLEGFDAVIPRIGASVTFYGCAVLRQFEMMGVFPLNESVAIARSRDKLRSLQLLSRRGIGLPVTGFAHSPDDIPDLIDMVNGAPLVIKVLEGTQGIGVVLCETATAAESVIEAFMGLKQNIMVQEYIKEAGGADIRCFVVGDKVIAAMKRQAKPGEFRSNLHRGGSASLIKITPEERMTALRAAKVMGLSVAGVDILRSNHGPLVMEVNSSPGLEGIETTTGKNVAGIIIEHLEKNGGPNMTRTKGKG

ATPase specific activity of SBW25 RimK (3.8 μM) with RimB (6.0 μM), linked PK/LDH assay; RimK only 47 nmol/min/mg RimK: 196 nmol/min/mg
Substance: SBW25 RimB (enzyme)
